Test results reported in PMC11907993, “Rare but specific: 5-bp composite motifs define SMAD binding in BMP signaling”.

Experiments:
[1] = molecular target: T1, SMAD3 MH1 (human (Fig. 1/3 legends), UniProt P84022 10-136); test: EMSA; EMSA: 7.5 nM Cy5-dsDNA, 200 mM Tris pH 7.2, 100 mM NaCl, 2 mM TCEP, 15 min on ice; 6% PAGE in TG buffer, 4 °C; Hill fit, n = 2; conditions: protein: recombinant; tags: N-terminal His tag cleaved (TEV or 3C); chain copies: 2; label: 5'-Cy5
[2] = molecular target: T1, SMAD3 MH1; test: EMSA; Hill h = 1.80 ± 0.23; double binding; EMSA: 7.5 nM Cy5-dsDNA, 200 mM Tris pH 7.2, 100 mM NaCl, 2 mM TCEP, 15 min on ice; 6% PAGE in TG buffer, 4 °C; Hill fit, n = 2; conditions: protein: recombinant; tags: N-terminal His tag cleaved (TEV or 3C); chain copies: 2; label: 5'-Cy5
[3] = molecular target: SMAD4 MH1 (human (Fig. 1 legend), UniProt Q13485 18-142); test: EMSA; EMSA: 7.5 nM Cy5-dsDNA, 200 mM Tris pH 7.2, 100 mM NaCl, 2 mM TCEP, 15 min on ice; 6% PAGE in TG buffer, 4 °C; Hill fit, n = 2; conditions: protein: recombinant; tags: N-terminal His tag cleaved (TEV or 3C); label: 5'-Cy5
SMAD4 MH1, sequence (Q13485 18-142): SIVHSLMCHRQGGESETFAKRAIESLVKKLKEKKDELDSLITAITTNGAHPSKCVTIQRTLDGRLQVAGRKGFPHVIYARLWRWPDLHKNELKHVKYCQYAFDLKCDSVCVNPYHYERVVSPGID

[4] = molecular target: T1, SMAD3 MH1; test: EMSA; similar to sense SBE; EMSA: 7.5 nM Cy5-dsDNA, 200 mM Tris pH 7.2, 100 mM NaCl, 2 mM TCEP, 15 min on ice; 6% PAGE in TG buffer, 4 °C; Hill fit, n = 2; conditions: protein: recombinant; tags: N-terminal His tag cleaved (TEV or 3C); chain copies: 2; label: 5'-Cy5

T1 sequence (P84022 10-136): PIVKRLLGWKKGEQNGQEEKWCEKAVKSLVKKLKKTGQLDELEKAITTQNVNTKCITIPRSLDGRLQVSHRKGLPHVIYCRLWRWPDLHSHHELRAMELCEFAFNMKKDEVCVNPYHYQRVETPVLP

B1: pGC-SBE/SBE heterocomposite, sense SBE (dsDNA)
DNA 1: ATATGGCGCCAACTTGTCTGATATA
DNA 2: TATATCAGACAAGTTGGCGCCATAT
- binding result [1]: binds

B2: pGC-SBE+ (dsDNA)
DNA 1: ATATGGCGCCATAT
DNA 2: ATATGGCGCCATAT
- Kd [2]: 293 ± 32 nM
- Kd [3]: 886 ± 274 nM

B3: npGC-SBE+ (dsDNA)
DNA 1: ATATGGCTCCATAT
DNA 2: ATATGGAGCCATAT
- Kd [3]: 1340 ± 744 nM
- Kd [1]: 660 ± 280 nM

B4: pGC-SBE/SBE heterocomposite, inverted SBE (dsDNA)
DNA 1: ATATAGTCTGAACTTGGCGCCATAT
DNA 2: ATATGGCGCCAAGTTCAGACTATAT
- binding result [4]: binds

B5: SBE+ (dsDNA)
DNA 1: ATATGTCTGATAT
DNA 2: ATATCAGACATAT
- Kd [3]: 919 ± 70 nM
- Kd [1]: 366 ± 29 nM
